Assay results as given in the DeepSol protein solubility set.

Experiment: soluble on expression in E. coli; label from the status in PepcDB or PDB records
In the case of “LMPLRDIVIFPTMVQPLFVGRRFSIRAIEEANKKDKLIFLVLQKDKDVEEPKEEDIYKVGVVAYILRTVPIEDARVKVLVQGLKRGVIKKLEWKEDHYVAQVDVIEERDIPPESQTIEDKALIKAVKESIDKLVSLGKQIIPDLVVLIKELEEPGKLADMVASILDIKSSQAQEILETFDPRERLKK”, the “soluble on expression in E. coli” value is reported as “soluble”.
With “SNKGGGSGGGSGGGSGPTAAAAAAALQKQKALLQRVETDITSVVDNFTQIVNVSRVSDPPVKNSQETYMMEMRASRMATQVLLKDFLMSLWSVVNLLPHQWWQVQAADSLLKLVSELKQTAIFSGFASLNDHVEQRIEEFDQEAEKTNRLLARIADDASANLKELESHYYSSAQRLTLDI” the “soluble on expression in E. coli” value was “soluble”.
In the case of “MSLKIILPVKPISQLFPIPFVMGCEGVSAAMLLQFNNYDIKATQIMSHWPKHPTNPYKGYVGHPLLVKFGHHQTIFPDAFAPFLKQYDSRIVDGTGTSLNQLEKFIDKGQPVIIYHTSLGSKPLRRVFHFDNQPTKLVSNIHVTLLIGYDDDYYYYIDPLWSRLSKFVIFPSIIPNSKQIIKIKKHTLENSYNAPGKKCIYIDNEGHHHHHH”, the “soluble on expression in E. coli” value is reported as “not soluble”.
In the case of “MDSGMVTPELKKAFAERGIDIIPVDVGTKMLVNELHPSHHDSTQVVIGSPIIPAPGNIDPQLRSYRIRRRMTVEANPFLLDHVIAGTPVLPATCGMSWMINACEECYPGYRYFRCQDFKILKGITFNDKVASEHILEIQEVAKHGSESIEFKTKVLSKTPEGKIHYHFSAHITIVRELPAAPVYESLDMTEDHTIGAIGKDFYQKGGLSLFHGISFQQITRVLNINSQKITVECCWAEIPLETQGQFPVKWHNPYATDLSTQPLWLWLSHVHQEVCLPGQITKSEQFRAIPRNKPFYVSCEIEHKTPSGVTADIILHDREGKIYFRIYQAKAIIAPMNLHLEHHHHHH”, the “soluble on expression in E. coli” value is reported as “not soluble”.
For “RQGCEARRAHEHLIRLLLEQGKCPEDGWDESTLELFLHELAVMDSNNFLGNCGVGEREGRVASALVARRHYRFIHGIGRSGDISAVQPKAAGSSLLNKITNSLVLNVIKLAGVHSVASCFVVPMATGMSLTLCFLTLRHKRPKAKYIIWPRIDQKSCFKSMVTAGFEPVVIENVLEGDELRTDLKAVEAKIQELGPEHILCLHSTTACFAPRVPDRLEELAVICANYDIPHVVNNAYGLQSSKCMHLIQQGARVGRIDAFVQSLDKNFMVPVGGAIIAGFNEPFIQDISKMYPGRASASPSLDVLITLLSLGCSGYRKLLKERKEMFVYLSTQLKKLAEAHNERLLQTPHNPISLAMTLKTIDGHHDKAVTQLGSMLFTRQVSGARAVPLGNVQTVSGHTFRGFMSHADNYPCAYLNAAAAIGMKMQDVDLFIKRLDKCLNIVRKEQTRA”, the “soluble on expression in E. coli” value was “soluble”.
With “MKEIWLLAESESWDEAKEMLKDAIEIGFDGALVRRDFLERAEKLGRMKIVPIEDAVVKISSAEDQERALQREVVVLKFEDWKVIPLENIVAMKKSGKVIAAVDTIEDAKLALTTLERGADGIAVSGDRETLRKFYEVVKEEGERVELVRARVKEIRPLGVGERVCIDTVTLMTPGEGMLVGNQASFMFLVASESEESEYVASRPFRVNAGSVNAYLKVGDKTRYLAELKAGDEVEVVKFDGAVRKSYVGRVKIERRPLILIRAEVDGVEGSVILQNAETIKLVAPDGKHVSVAELKPGDEILVWLGKKARHFGVEVDEFIVER” the “soluble on expression in E. coli” value was “not soluble”.
In the case of “MAHHHHHHMHTYTTQPCATSTSVPQLTRLSVSSSGHSPAVPTNWSIGRPTTLRCRDTDSDVHCNWGAIQGEDEEDKESLIGCATQVWRISAEVQMPLQCSHGTRATEEETLLGAPTSHCGDHLTNGRGVFASSPPIVWQPAPLPASFSASQIDLSGGGQDNAVLLSGAPVGSAEEETHNDNREVTRSNVIPATGDIAATESNDSFVGLEAAPRKGYARSNSGTPPRSDLGSPNNAANLQAHGRAANGVSAGVELVYRAAASETNSHHFGASLCANIGSGCRARLGIPAEWRDHMCAATPQGRGVWVQVPGQLRESEYPASTTTAEAVAARLAHISIHTSPTPKRLAFEEEELVERVSGGGSPTLIPAVRFVADGAARRGACNEASVAQGAGGSTEVGLLGRGAGGLSSSGMRWASVFGDSGHLELCSSRIPSGLQLLRSRKRCLDEMQATDTQERHADTLVTGGISDARDASYLVPDRVARMSLATPFENLEEDGDGDEEAVKRQRREEQRRMRLQHLLPASPNTMDDLIPAPARALGTAVAPCSSVSSSHVRSTVHGIQSTQDQQHQQDRTRNDDPASWSQVSSISYVTPASQSTSMGLWGVPGTLSQGHHGGAVVCSVGSGSQLLTPLPTNVMPQPSHKP”, the “soluble on expression in E. coli” value is reported as “not soluble”.
With “AHHHHHHGSMLKEVHELLNRIWGDIFELREELKEELKGFTVEEVSEVFNAYLYIDGKWEEMKYPHPAFAVKPGGEVGATPQGFYFVFAFPKEELSKEFIEDVIRAFEKLFIYGAENFLEDFYNFEHPISGDEVWDRIVNSDEEMINFEVDLGFDKEEVKREIKRFIELARRYNLL” the “soluble on expression in E. coli” value was “soluble”.
With “MQAEILLTLKLQQKLFADPRRISLLKHIALSGSISQGAKDAGISYKSAWDAINDMNQLSEHMLVERATGGKGGGGAVLTRYGQRLIQLYDLLGQIQQKAFDVLSDDDALPLDSLLAAISRFSLQTSARNQWFGTITARDRDLVQQHVDVLLADGKTRLKVALTAQSGERLGLEEGKEVLILLKAPWVGITRDAAVARAADNQLSGTISHIERGAEQCEVLMALPDGQTLCATIPTSDAATLKEGDDVIAWFNADRVIIATLC” the “soluble on expression in E. coli” value was “not soluble”.
For “MRIFSRLFKARDKPKNSLFGNAYSFFFGGTSSGKAVNERTAMQTTAVYACVRILAEAIAGLPLHVYRYKEDGGKEKALTHPLYYLLHDEPNPEMTSFVFRETLMSHLLLWGNAYAQIVRDGSGRVLALYPLLPNKMTVDRAPNGELYYTYRRDSDESRVNPKAGLIYLRSDEVLHIPGLGFDGLIGYSPIAMAKNAIGMAIACEEYGASFFANGANPGGVLEHPGVLKDPAKVRESWNAVYQGSANAHRIAVLEEGMKFQPIGIPPEQAQFLETRKFQINEIARIFRVPPHMVGDLEKSSFSNIEQQSLEFVKYTLDPWVVRWEQALQKALLLPSEKRAYFVKFNVDGLLRGDYASRMNGYAVARQNGWMSANDIRELEDMNRIPAELGGDLYLVNGNMTRLADAGTFAGKNNAETEGSKVEQITKTKTGSPLLELDTKR”, the “soluble on expression in E. coli” value was “not soluble”.
For “SGKVILITGASRGIGLQLVKTVIEEDDECIVYGVARTEAGLQSLQREYGADKFVYRVLDITDRSRMEALVEEIRQKHGKLDGIVANAGMLEPVKSISQSNSEHDIKQWERLFDVNFFSIVSLVALCLPLLKSSPFVGNIVFVSSGASVKPYNGWSAYGCSKAALNHFAMDIASEEPSDKVRAVCIAPGVVDTQMQKDIRETLGPQGMTPKALERFTQLYKTSSLLDPKVPAAVLAQLVLKGIPDSLNGQYLRYNDERLGPVQG”, the “soluble on expression in E. coli” value was “soluble”.
For “ANEMTYEQLARELLLVGPAPTNEDLKLRYLDVLIDNGLNPPGPPKRILIVGAGIAGLVAGDLLTRAGHDVTILEANANRVGGRIKTFHAKKGEPSPFADPAQYAEAGAMRLPSFHPLTLALIDKLGLKRRLFFNVDIDPQTGNQDAPVPPVFYKSFKDGKTWTNGAPSPEFKEPDKRNHTWIRTNREQVRRAQYATDPSSINEGFHLTGCETRLTVSDMVNQALEPVRDYYSVKQDDGTRVNKPFKEWLAGWADVVRDFDGYSMGRFLREYAEFSDEAVEAIGTIENMTSRLHLAFFHSFLGRSDIDPRATYWEIEGGSRMLPETLAKDLRDQIVMGQRMVRLEYYDPGRDGHHGELTGPGGPAVAIQTVPEGEPY”, the “soluble on expression in E. coli” value was “soluble”.
In the case of “MAHHHHHHMTSVIQRLRRIEVEGLENLRNLGGYHTNNSTKTTRWGVVYRSDQLFRVPADVAQMVLVDQLHIRHVYDLRANTEVSAKRYSLPHMQYTSLPIEMSNANRFLKEGENLKQVATAHRFMQEIYREFVRSYAPTMGLIIKGIIDSKASCDNAFLIHCTAGKDRTGWCCYVLLTLLDVMEEEKRSDYLLTNTFVGIPADAWDYDGAEGMGEEAMTALWTVFDEYLDAALDELNKMGGIYKYAKSHMGLTDEDIDELRELMLE”, the “soluble on expression in E. coli” value is reported as “soluble”.
For “MMEMITIKPGKITVQANPNMPKEVAELFRKQHYEIVGRHSGVKLCHWLKKSLTEGRFCYKQKFYGIHSHRCLQMTPVLAWCTHNCIFCWRPMENFLGTELPQPWDDPAFIVEESIKAQRKLLIGYKGNPKVDKKKFEEAWNPTHAAISLSGEPMLYPYMGDLVEEFHKRGFTTFIVTNGTIPERLEEMIKEDKLPTQLYVSITAPDIETYNSVNIPMIPDGWERILRFLELMRDLPTRTVVRLTLVKGENMHSPEKYAKLILKARPMFVEAKAYMFVGYSRNRLTINNMPSHQDIREFAEALVKHLPGYHIEDEYEPSRVVLIMRDDVDPQGTGVEGRFIKHLEHHHHHH”, the “soluble on expression in E. coli” value was “not soluble”.
For “MENLKNIQPREDFNWEEFEAGGVHAAVSRQEQEAAYDKTLNTIKEKEVVMGRVTAINKREVVINVGYKSEGVVPATEFRYNPELKVGDEVEVYIENQEDKKGQLVLSHRKARAARSWERVNEALEKDEIVKGYVKCRTKGGMIVDVFGIEAFLPGSQIDVRPIRDYDAFVEKTMEFKIVKINQEYKNVVVSHKVLIEAELEQQKKEII”, the “soluble on expression in E. coli” value was “not soluble”.
In the case of “MGHHHHHHSHMKPVKHLLTTSNKSANVPALTTKKGLHNLPLSPELKEKHNAKLIHDKIEPMVLRSPPTGESILRYALPIPSSKTKNLLPEDEMIGKIIKHLKMVVSTLEETYGHCDQNGEEPFVKHEHEELSLSVGDDMNSFLTYCSQFAAQLEEALKEEQNILESLFKWFQWQVNQMEEISKDQTLLQAEPPKPDKTVILNIAEIVRLVQRFEELKNRLKQRSKSSVKVMLSKTMDKENRPEAVKSCEALAQKIEEFLEAHSTDEFKDVSATEPQL”, the “soluble on expression in E. coli” value is reported as “soluble”.
For “MKIKTLLSIITAMALLILGTEVATAQSTGVPTIDSGSPESNQPLNDTMITTKVKAELAIAEGIKSGDISVETVNGVVILTGTQPNEMLIKKAEEVAKSVKDVKQVDISGLTVNTTTAD”, the “soluble on expression in E. coli” value was “not soluble”.
For “GLPARSSSISNTNRTGENPMITPIISSNLGLKHRVTLRKATLASLMQSLSGESSNRVMWNDRYDTLLIARDPREIKNAIEKSVTDFGGLENYKELTGGADPFALMTPVCGLSANNIFKLMTEKDVPIDPTSIEYLENTSFAEHVNTLDSHKNYVVIVNDGRLGHKFLIDLPALTQGPRTAYIIQSDLGGGALPAVRVEDWISRRGSDPVSLDELNQLLSKDFSKMPDDVQTRLLASILQIDKDPHKVDIKKLHLDGKLRFASHEYDFRQFQRNAQYVAGLG”, the “soluble on expression in E. coli” value was “soluble”.
For “MGSDKIHHHHHHMELVKFGKLKEQSYTMKESLRALKTNIQFCGDDIRTLLVTSSVPNEGKSTVALDLARSLTESGNRVLFIDTDMRKSVLAGRLRATAASGGEICGLSHYLSGQRRLEEVMYGTEIPGLFMIFAGPSVPNPTEILEKKYFQELLNFGKEHFNYIIIDCAPIGAAIDAAVVAKYCDGAIIVIGQGMASARMIQSVKKQLEASGVRILGAVLNKVNNKKNSHVSGYYGNYYGSYYGRSDKA”, the “soluble on expression in E. coli” value was “not soluble”.
With “MAESFTTTNRYFDNKHYPRGFSRHGDFTIKEAQLLERHGYAFNELDLGKREPVTEEEKLFVAVCRGEREPVTEAERVWSKYMTRIKRPKRFHTLSGGKPQVEGAEDYTDSDD” the “soluble on expression in E. coli” value was “soluble”.
For “MDGELRALLNAVLERLDVQGVYIEQMRMDIVKLQGSVKQLEDKVDRIQSDVEAMKKDMDAMKKDMDAMKKDMLGVKKDVAALKEGQVRQEKIMERLAIRSIEQEAEIDELRKEISA”, the “soluble on expression in E. coli” value was “not soluble”.
For “MATAAVTDDIEEGARKAPALIRYLAEGEYVTRRYVSQGAEMNTGEYADYECVVRDGMPIRDHFTLDVHGFALGRHRSAVADFHDKPTVDALYLDEVEELVTRLCGAARTAAQGWMIRTSADLTERAKQKVQGYQHSGGIQPPAGEAHVDYNEVTGRRAAARVYADRFPDGPGYKRYICFSLWRTFSPGPQDWPLAVCDGRTVRDEETASNTLFVVDEFPVGDALTAPVEGEDQMIAATIFRHRDRHRWWYFSNMAADDVLLFKFQDSDHSVTWRCPHTAFHDTSLPDAKTRSSIEVRCIAFFELEHHHHHH”, the “soluble on expression in E. coli” value was “soluble”.
